The results in this text go back to patent US20020102215A1.

This assay concerns the target thiolated anti-CD34 antibody conjugated to gas-filled microbubbles encapsulated with DSPS and comprising DSPE-PEG2000-MAL. In words: flow cytometry of anti-CD34-conjugated microbubbles after incubation with the FITC-labelled secondary antibody and washing. In general terms: A flow cytometer gives signals particle by particle.

“FITC-conjugated goat-anti-mouse antibody” gave a % of microbubble population fluorescent of 98%.
